B1: BV10 FLT3 CAR (other)
chain: QVQLKQSGPGLVQPSQSLSITCTVSGFSLTNYGLHWVRQSPGKGLEWLGVIWSGGSTDYNAAFISRLSISKDNSKSQVFFKMNSLQADDTAIYYCARKGGIYYANHYYAMDYWGQGTSVTVSSGGGGSGGGGSGGGGSDIVMTQSPSSLSVSAGEKVTMSCKSSQSLLNSGNQKNYMAWYQQKPGQPPKLLIYGASTRESGVPDRFTGSGSGTDFTLTISSVQAEDLAVYYCQNDHSYPLTFGAGTKLELKRESKYGPPCPPCPMFWVLVVVGGVLACYSLLVTVAFIIFWVRSKRSRGGHSDYMNMTPRRPGPTRKHYQPYAPPRDFAAYRSRVKFSRSADAPAYQQGQNQLYNELNLGRREEYDVLDKRRGRDPEMGGKPRRKNPQEGLYNELQKDKMAEAYSEIGMKGERRRGKGHDGLYQGLSTATKDTYDALHMQALPPR
B2: anti-FLT3 BV10 mAb (Biolegend) (antibody, V domains shown)
VH: QVQLKQSGPGLVQPSQSLSITCTVSGFSLTNYGLHWVRQSPGKGLEWLGVIWSGGSTDYNAAFISRLSISKDNSKSQVFFKMNSLQADDTAIYYCARKGGIYYANHYYAMDYWGQGTSVTVSS
VL: DIVMTQSPSSLSVSAGEKVTMSCKSSQSLLNSGNQKNYMAWYQQKPGQPPKLLIYGASTRESGVPDRFTGSGSGTDFTLTISSVQAEDLAVYYCQNDHSYPLTFGAGTKLELKR
B3: 4G8 FLT3 CAR (other)
chain: QVQLQQPGAELVKPGASLKLSCKSSGYTFTSYWMHWVRQRPGHGLEWIGEIDPSDSYKDYNQKFKDKATLTVDRSSNTAYMHLSSLTSDDSAVYYCARAITTTPFDFWGQGTTLTVSSGGGGSGGGGSGGGGSDIVLTQSPATLSVTPGDSVSLSCRASQSISNNLHWYQQKSHESPRLLIKYASQSISGIPSRFSGSGSGTDFTLSINSVETEDFGVYFCQQSNTWPYTFGGGTKLEIKRESKYGPPCPPCPMFWVLVVVGGVLACYSLLVTVAFIIFWVRSKRSRGGHSDYMNMTPRRPGPTRKHYQPYAPPRDFAAYRSRVKFSRSADAPAYQQGQNQLYNELNLGRREEYDVLDKRRGRDPEMGGKPRRKNPQEGLYNELQKDKMAEAYSEIGMKGERRRGKGHDGLYQGLSTATKDTYDALHMQALPPR
B4: mouse-anti-human-FLT3 mAb (clone 4G8, BD Pharmagin, BD Biosciences) (antibody, V domains shown)
VH: QVQLQQPGAELVKPGASLKLSCKSSGYTFTSYWMHWVRQRPGHGLEWIGEIDPSDSYKDYNQKFKDKATLTVDRSSNTAYMHLSSLTSDDSAVYYCARAITTTPFDFWGQGTTLTVSS
VL: DIVLTQSPATLSVTPGDSVSLSCRASQSISNNLHWYQQKSHESPRLLIKYASQSISGIPSRFSGSGSGTDFTLSINSVETEDFGVYFCQQSNTWPYTFGGGTKLEIKR
notes: Bought, fluorochrome-conjugated mouse antibody, used with a mouse IgG1 isotype control; also called anti-FLT3 mAb (4G8); anti-FLT3 4G8 mAb

Key:
[1] = target: T1, FLT3 with internal tandem duplication (FLT3-ITD) (human, UniProt P36888 27-543); assay: cell-based or functional assay
T1 sequence (looked up): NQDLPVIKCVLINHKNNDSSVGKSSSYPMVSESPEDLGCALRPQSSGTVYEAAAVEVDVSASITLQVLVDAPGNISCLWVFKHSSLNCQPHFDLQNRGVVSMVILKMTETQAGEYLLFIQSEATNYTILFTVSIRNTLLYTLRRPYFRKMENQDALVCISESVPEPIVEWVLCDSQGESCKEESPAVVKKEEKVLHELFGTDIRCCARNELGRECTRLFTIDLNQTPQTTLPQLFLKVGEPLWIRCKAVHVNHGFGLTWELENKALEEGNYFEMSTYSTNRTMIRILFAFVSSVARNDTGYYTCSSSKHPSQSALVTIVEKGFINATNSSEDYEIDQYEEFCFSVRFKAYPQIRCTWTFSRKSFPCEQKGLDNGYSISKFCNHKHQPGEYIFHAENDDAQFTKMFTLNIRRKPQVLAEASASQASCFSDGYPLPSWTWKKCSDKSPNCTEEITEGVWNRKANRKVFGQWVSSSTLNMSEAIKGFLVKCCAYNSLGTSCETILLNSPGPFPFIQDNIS

[2] = target: T2, FMS-like tyrosine kinase 3 (FLT3), wild-type (human, UniProt P36888 27-993); assay: flow cytometry, staining of THP-1 cells (FLT3 wild-type)
T2 construct: whole, on cells; also called CD135; wt FLT3
T2 sequence (looked up): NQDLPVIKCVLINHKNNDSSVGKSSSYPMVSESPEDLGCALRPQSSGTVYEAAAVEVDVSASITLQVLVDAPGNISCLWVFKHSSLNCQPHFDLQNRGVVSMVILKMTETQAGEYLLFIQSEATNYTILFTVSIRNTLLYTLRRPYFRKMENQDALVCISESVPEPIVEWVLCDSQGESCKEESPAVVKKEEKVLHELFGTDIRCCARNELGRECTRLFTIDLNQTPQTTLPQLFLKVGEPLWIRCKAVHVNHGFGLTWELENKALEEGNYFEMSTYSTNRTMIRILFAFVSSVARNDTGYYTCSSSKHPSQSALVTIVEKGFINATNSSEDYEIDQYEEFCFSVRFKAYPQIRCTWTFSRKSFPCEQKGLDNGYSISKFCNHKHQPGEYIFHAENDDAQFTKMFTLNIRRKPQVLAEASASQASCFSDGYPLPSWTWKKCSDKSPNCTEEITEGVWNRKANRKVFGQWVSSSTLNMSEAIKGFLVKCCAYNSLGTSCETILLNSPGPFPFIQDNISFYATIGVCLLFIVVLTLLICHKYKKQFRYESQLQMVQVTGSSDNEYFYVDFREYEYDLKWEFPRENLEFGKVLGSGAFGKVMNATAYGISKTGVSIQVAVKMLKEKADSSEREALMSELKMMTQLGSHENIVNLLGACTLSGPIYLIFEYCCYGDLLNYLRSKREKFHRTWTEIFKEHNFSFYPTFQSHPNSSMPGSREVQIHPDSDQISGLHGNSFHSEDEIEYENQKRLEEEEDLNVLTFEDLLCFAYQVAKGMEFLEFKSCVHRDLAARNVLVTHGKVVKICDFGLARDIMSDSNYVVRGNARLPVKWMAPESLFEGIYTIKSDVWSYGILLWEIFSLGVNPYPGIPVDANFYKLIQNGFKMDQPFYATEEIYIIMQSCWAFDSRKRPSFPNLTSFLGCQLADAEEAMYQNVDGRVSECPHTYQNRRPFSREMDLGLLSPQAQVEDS
Description: (a) Flow cytometric analysis of FLT3 expression on AML cell lines (MOLM-13, THP-1, MV4;11) and primary AML blasts (pt #1 and #2).

Binder | IFN-γ production, MOLM-13^creno against MOLM-13^native [1] | IFN-γ production, MOLM-13^mido against MOLM-13^native [1] | IFN-γ production, MOLM-13^quiza against MOLM-13^native [1] | IL-2 production, MOLM-13^creno against MOLM-13^native [1] | IL-2 production, MOLM-13^mido against MOLM-13^native [1] | IL-2 production, MOLM-13^quiza against MOLM-13^native [1] | increase in cytolytic activity, MOLM-13^creno against MOLM-13^native, 2.5:1 E:T [1] | increase in cytolytic activity, MOLM-13^creno against MOLM-13^native, 5:1 E:T [1] | increase in cytolytic activity, MOLM-13^mido against MOLM-13^native, 2.5:1 E:T [1] | increase in cytolytic activity, MOLM-13^mido against MOLM-13^native, 5:1 E:T [1] | increase in cytolytic activity, MOLM-13^quiza against MOLM-13^native, 2.5:1 E:T [1] | increase in cytolytic activity, MOLM-13^quiza against MOLM-13^native, 5:1 E:T [1] | proliferation index, MOLM-13^mido against MOLM-13^native [1] | further results
B1 | 1.6 fold | 2.1 fold | 1.2 fold | 2 fold | 6.6 fold | 1.9 fold | 1.8 fold | 1.6 fold | 1.6 fold | 1.3 fold | 3.8 fold | 1.6 fold | 1.8 fold | IFN-γ production, CAR-T vs MOLM-13^native [1]: 1480 pg/mL; proliferation index, MOLM-13^creno against MOLM-13^native [1]: 1.3 fold; proliferation index, MOLM-13^quiza against MOLM-13^native [1]: 1.2 fold
B2 |  |  |  |  |  |  |  |  |  |  |  |  |  | ADCC, percentage of MV4;11 cells eliminated, crenolanib pre-treatment against none [1]: 3 fold; ADCC, percentage of MV4;11 cells eliminated, midostaurin pre-treatment against none [1]: 2 fold; ADCC, percentage of MV4;11 cells eliminated, quizartinib pre-treatment against none [1]: 3.5 fold
B3 | 1.4 fold | 2.3 fold | 1.4 fold | 3.9 fold | 12.4 fold | 1.9 fold | 2.5 fold | 2 fold | 1.5 fold | 1.4 fold | 17.7 fold | 1.6 fold | 1.8 fold | % proliferation, CAR-T vs MOLM-13^native [1]: 31.3%
B4 |  |  |  |  |  |  |  |  |  |  |  |  |  | binding result [2]: binds

— patent US20200206266A1 (JULIUS MAXIMILIANS UNIVERSIT T W RZBURG, published 2020)
